In patent publication US20180216194A1:

How the values were obtained:
Test in all cases: Bio-Plex bead immunoassay, multiplexed beads, single antigen, single detection antibody
[1] = biological target: recombinant MIA protein (R&D Systems DuoSet Cat. # DY2050) (human) (UniProt Q16674)
[2] = biological target: recombinant OPN protein (R&D Systems Cat. # 1433-OP-050) (Homo sapiens (Human)) (UniProt P10451)
[3] = biological target: recombinant CEACAM-1 protein (R&D Systems DuoSet Cat. # DY2244) (human) (UniProt P13688)
Chain of UniProt P13688 (P13688 35-428 limits assumed): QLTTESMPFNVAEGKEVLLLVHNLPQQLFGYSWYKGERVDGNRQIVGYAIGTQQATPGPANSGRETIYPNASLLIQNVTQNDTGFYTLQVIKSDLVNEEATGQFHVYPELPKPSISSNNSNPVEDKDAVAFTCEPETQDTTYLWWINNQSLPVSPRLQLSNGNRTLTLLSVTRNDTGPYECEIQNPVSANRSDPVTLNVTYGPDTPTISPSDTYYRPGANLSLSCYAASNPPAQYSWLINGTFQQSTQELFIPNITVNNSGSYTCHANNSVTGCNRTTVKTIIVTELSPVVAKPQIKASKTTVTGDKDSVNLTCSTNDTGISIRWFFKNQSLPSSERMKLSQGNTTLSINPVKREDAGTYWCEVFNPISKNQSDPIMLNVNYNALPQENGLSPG

[4] = biological target: recombinant HSP27 protein (R&D Systems DuoSet Cat. # DY1580) (human) (UniProt P04792)
Chain of UniProt P04792 (P04792 whole entry): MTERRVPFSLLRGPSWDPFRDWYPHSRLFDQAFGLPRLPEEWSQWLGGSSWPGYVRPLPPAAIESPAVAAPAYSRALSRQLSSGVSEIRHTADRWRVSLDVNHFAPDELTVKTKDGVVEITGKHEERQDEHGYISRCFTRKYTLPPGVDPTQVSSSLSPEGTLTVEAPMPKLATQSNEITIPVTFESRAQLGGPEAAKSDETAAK

[5] = biological target: recombinant SPON1 protein (R&D Systems Cat. # 3135-SP/CF) (Homo sapiens (Human)) (UniProt Q9HCB6)
Chain of UniProt Q9HCB6 (Q9HCB6 29-807 limits assumed): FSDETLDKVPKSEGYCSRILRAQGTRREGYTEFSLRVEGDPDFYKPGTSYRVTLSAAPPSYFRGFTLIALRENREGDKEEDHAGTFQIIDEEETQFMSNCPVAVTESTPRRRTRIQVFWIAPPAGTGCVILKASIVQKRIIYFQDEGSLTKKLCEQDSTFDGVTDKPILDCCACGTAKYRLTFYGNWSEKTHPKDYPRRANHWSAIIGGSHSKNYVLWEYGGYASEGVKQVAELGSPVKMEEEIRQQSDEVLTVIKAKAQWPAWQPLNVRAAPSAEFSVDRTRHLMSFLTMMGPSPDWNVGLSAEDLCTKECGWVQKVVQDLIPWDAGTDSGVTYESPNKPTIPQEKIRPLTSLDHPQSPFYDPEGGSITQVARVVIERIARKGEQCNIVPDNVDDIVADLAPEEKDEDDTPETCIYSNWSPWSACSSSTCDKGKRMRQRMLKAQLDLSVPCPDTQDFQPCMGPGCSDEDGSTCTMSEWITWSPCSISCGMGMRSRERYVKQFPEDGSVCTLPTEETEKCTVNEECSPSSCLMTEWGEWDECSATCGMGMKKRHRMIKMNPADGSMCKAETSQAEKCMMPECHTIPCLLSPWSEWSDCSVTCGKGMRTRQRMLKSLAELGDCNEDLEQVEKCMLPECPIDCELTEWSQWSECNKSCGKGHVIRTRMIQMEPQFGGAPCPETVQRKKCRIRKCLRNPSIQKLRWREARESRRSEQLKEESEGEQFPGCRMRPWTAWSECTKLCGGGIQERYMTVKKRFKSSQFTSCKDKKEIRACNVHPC

[6] = biological target: recombinant MIC-1 protein (R&D Systems DuoSet Cat. # DY957) (human) (UniProt Q99988)
Chain of UniProt Q99988 (Q99988 197-308 limits assumed): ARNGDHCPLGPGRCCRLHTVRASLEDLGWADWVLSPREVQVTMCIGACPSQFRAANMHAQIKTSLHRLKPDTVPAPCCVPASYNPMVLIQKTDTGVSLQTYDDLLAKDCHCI

Chain of UniProt Q16674 (Q16674 25-131 limits assumed): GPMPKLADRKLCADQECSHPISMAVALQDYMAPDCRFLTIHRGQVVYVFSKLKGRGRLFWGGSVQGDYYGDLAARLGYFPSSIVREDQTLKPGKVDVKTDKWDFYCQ
Chain of UniProt P10451 (P10451 other isoform, or with tags, fused parts or gaps limits assumed): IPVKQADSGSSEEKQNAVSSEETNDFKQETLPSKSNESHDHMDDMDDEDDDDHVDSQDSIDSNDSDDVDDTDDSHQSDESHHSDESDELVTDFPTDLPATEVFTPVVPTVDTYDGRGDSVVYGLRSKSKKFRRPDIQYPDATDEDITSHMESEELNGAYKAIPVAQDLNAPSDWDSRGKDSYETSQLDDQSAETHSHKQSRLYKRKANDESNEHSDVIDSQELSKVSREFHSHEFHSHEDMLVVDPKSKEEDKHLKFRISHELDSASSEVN

Row | Substance | % cross-reactivity (single-detection antibody) [1] | % cross-reactivity (single-detection antibody) [2] | % cross-reactivity (single-detection antibody) [3] | % cross-reactivity (single-detection antibody) [4] | % cross-reactivity (single-detection antibody) [5] | % cross-reactivity (single-detection antibody) [6]
1 | MIC-1 capture antibody (R&D Systems DuoSet Cat. # DY957, mouse) | 0% | 0% | 0% | 0% | 0% | –
2 | MIA capture antibody (R&D Systems DuoSet Cat. # DY2050, mouse) | – | 0.3% | 0.4% | 0.1% | 0.3% | 0.1%
3 | OPN capture antibody (R&D Systems Cat. # MAB14332, mouse) | 0% | – | 0% | 0% | 0% | 0%
4 | CEACAM-1 capture antibody (R&D Systems DuoSet Cat. # DY2244, mouse) | 0.2% | 0% | – | 0% | 0% | 0%
